{
  "source": "patent US20220403424A1",
  "about": "(UNIVERSITY OF PUERTO RICO, published 2022)",
  "proteins": {"B1": {"name": "FabA-Linker-FabZ fused heterodimer (enzyme)", "chain": "MVDKRESYTKEDLLASGRGELFGAKGPQLPAPNMLMMDRVVKMTETGGNFDKGYVEAELDINPDLWFFGCHFIGDPVMPGCLGLDAMWQLVGFYLGWLGGEGKGRALGVGEVKFTGQVLPTAKKVTYRIHFKRIVNRRLIMGLADGEVLVDGRLIYTASDLKVGLFQDTSAFSTQNVAIQTAAPVASASNGLDAAQVQGTMTTNTHTLQIEEILELLPHRFPFLLVDRVLDFEEGRFLRAVKNVSVNEPFFQGHFPGKPIFPGVLILEAMAQATGILAFKSVGKLEPGELYYFAGIDEARFKRPVVPGDQMIMEVTFEKTRRGLTRFKGVALVDGKVVCEATMMCARSREA", "notes": "Single-chain fusion, His-tagged, purified from E. coli; By SEC and SAXS the chain self-associates into a higher oligomer of about 400 kDa; The number of copies is not settled: 'possibly decamers', and nonamers in computational models; also called FabA-FabZ; FabA-peptide linker-FabZ; not shown: His tag from vector pET-200/TOPO"}, "B2": {"name": "FabZ-Linker-FabZ fused homodimer (enzyme)", "chain": "MTTNTHTLQIEEILELLPHRFPFLLVDRVLDFEEGRFLRAVKNVSVNEPFFQGHFPGKPIFPGVLILEAMAQATGILAFKSVGKLEPGELYYFAGIDEARFKRPVVPGDQMIMEVTFEKTRRGLTRFKGVALVDGKVVCEATMMCARSREASTQNVAIQTAAPVASASNGLDAAQVQGTMTTNTHTLQIEEILELLPHRFPFLLVDRVLDFEEGRFLRAVKNVSVNEPFFQGHFPGKPIFPGVLILEAMAQATGILAFKSVGKLEPGELYYFAGIDEARFKRPVVPGDQMIMEVTFEKTRRGLTRFKGVALVDGKVVCEATMMCARSREA", "notes": "Single-chain fusion; By SEC it elutes as a trimer of fused dimers, so three copies of this chain, at about 116 kDa; also called FabZ-FabZ; FabZFabZ; not shown: His tag from vector pET-200/TOPO"}},
  "molecular_target": "the molecule itself",
  "test": "size exclusion chromatography, self-association",
  "data": [
    {"protein": "B1", "values": [
      {"measurement": "binding result", "result": "binds"}
    ]},
    {"protein": "B2", "values": [
      {"measurement": "binding result", "result": "binds"}
    ]}
  ]
}
